B1: Apoptosis-associated speck-like protein containing a CARD, residues 114 to 194; numbered along this chain, Q9ULZ3 (parent)
chain: FIDQHRAALIARVTNVEWLLDALYGKVLTDEQYQAVRAEPTNPSKMRKLFSFTPAWNWTCKDLLLQALRESQSYLVEDLER
B2: Serine/threonine-protein kinase LATS1, residues 98 to 141; numbered along this chain, O95835 (parent)
chain: TSEVNPQMLQDLQAAGFDEDMVIQALQKTNNRSIEAAIEFISKM

Variants of: B1
Assay: abundance fitness (aPCA) (normalised: wild type 0, dead -1); higher = more abundant; growth selection in yeast, the domain comes from the species named
Conditions: Homo sapiens

Abundance fitness, by site and new letter:
A67: P -0.658; Q -0.711; R -0.622; S -0.544; T -0.452; V -0.484; W -0.491; Y -0.239
L68: A -0.733; C -0.688; D -1.01; E -0.886; F -0.477; G -0.764; H -0.334; I 0.001; M -0.449; N -0.54; P -0.569; Q -0.876; S -0.838; V -0.527; W -1.18; Y -0.777
R69: A -0.54; C -0.367; D -0.859; E -0.29; F -0.636; G -0.736; H -0.517; I -0.195; K 0.031; L -0.502; M -0.505; N -0.581; P -0.753; Q -0.716; T -0.538; V -0.378; W -0.679; Y -0.62
E70: A -0.209; C -0.202; D -0.152; F -0.401; I -0.468; K -0.116; L -0.467; M -0.46; N -0.322; P -0.542; R -0.343; S -0.265; T -0.181; V -0.211; Y -0.588
S71: A -0.469; C -0.453; D -0.501; E -0.958; F -0.8; G -0.479; H -0.109; I -0.813; K -0.538; L -0.816; M -0.526; N 0.161; P -0.774; Q -0.251; R -0.529; T -0.098; V -0.429; W -0.874
Q72: A -0.191; C -0.272; E 0.116; G -0.627; H 0.009; I -0.977; K -0.626; L -0.633; M -0.545; N 0.141; P -0.987; R -0.691; S -0.216; T -0.659; V -0.574; W -0.615; Y -0.332
S73: A -0.063; C -0.257; D -0.338; E -0.218; F -0.551; G 0.067; H -0.144; I -0.628; K -0.289; L -0.112; M -0.266; N -0.022; P 0.32; Q -0.016; R -0.025; T -0.048; V -0.517; W -0.302; Y -0.167
Y74: A 0.202; C 0.177; D 0.21; E 0.249; F -0.341; G 0.151; H 0.027; I -0.1; K 0.221; L 0.027; M -0.103; N 0.139; P -0.081; Q 0.265; R -0.031; S 0.219; T 0.138
L75: A -0.671; C -0.839; D -0.819; E -0.561; H -0.611; K -0.944; M -0.647; P -0.695; Q -0.651; S -0.669; T -0.924; V -0.408; W -0.868
V76: A -0.698; C -0.497; D -0.312; E -0.838; F -0.637; G -0.587; H -0.959; I -0.056; K -0.598; L -0.27; P -0.632; Q -0.952; R -0.92; S -1.05; T -0.558; W -0.611; Y -0.538
E77: A -0.209; C -0.616; D -0.115; F -0.147; G -0.481; H -0.365; I -0.479; L -0.428; M -0.244; P -0.66; Q -0.124; T -0.63; V -0.658; W -0.399; Y -0.491
D78: A -0.286; C -0.124; E -0.045; G -0.228; H -0.034; I -0.186; K -0.303; L -0.167; N -0.291; P -0.687; Q -0.137; S -0.119; T -0.34; V -0.45; W -0.141; Y -0.218
L79: A -0.726; D -0.508; E -0.774; F -0.678; G -0.882; I -0.455; K -0.857; M -0.668; N -0.688; Q -0.706; R -0.751; S -0.914; T -0.848; V -0.775; W -1.06; Y -0.886
E80: A -0.283; C -0.347; D -0.165; G -0.317; H 0.018; I -0.24; K -0.751; M -0.325; P -0.467; Q -0.115; R -0.461; S -0.204; T -0.172; V -0.409; Y -0.532

Variants of: B2
Assay: as above
Conditions: Homo sapiens

Abundance fitness, by site and new letter:
T1: A -0.062; C -0.098; D 0.018; E 0.019; F -0.032; G 0.023; I -0.079; K -0.012; L -0.303; M -0.11; N 0.316; P -0.213; Q -0.062; R -0.072; S 0.021; V -0.148; W -0.197; Y -0.26
S2: A -0.07; C -0.154; D -0.082; E -0.014; F -0.108; G 0.029; H -0.168; I -0.035; K 0.021; L -0.219; M -0.143; N -0.057; Q -0.035; R -0.054; T 0.075; V -0.311; W -0.174; Y -0.231
E3: A -0.223; C -0.855; D -0.099; F -0.18; G -0.117; H -0.148; I -0.529; K -0.042; L -0.326; N -0.119; P -0.079; Q -0.138; R -0.202; S -0.332; T -0.126; V -0.802; W -0.116; Y -0.2
V4: C -0.277; D -0.344; E -0.402; F -0.357; G -0.388; H -0.262; I -0.15; L -0.367; M -0.453; N -0.204; P -0.057; R -0.515; S -0.444; T -0.218; W -0.561; Y -0.272
N5: D -0.028; E -0.442; F -1.21; G -0.653; H -0.211; I -0.82; K -0.638; L -0.878; M -0.951; P -0.637; Q -0.528; T -0.628; V -0.716; W -0.828; Y -0.964
P6: A 0.037; C -0.219; D 0.007; E 0.07; F -0.115; G -0.048; H -0.001; K 0.101; L -0.13; M 0.005; N 0.249; Q 0.081; R 0.039; S -0.052; V -0.032; W -0.201; Y -0.119
Q7: C -0.354; D -0.111; E -0.036; F -0.549; G -0.157; I -0.223; K 0.009; L -0.296; M -0.178; N -0.227; P -0.796; R -0.129

— the Human Domainome abundance scans (Beltran et al. 2025)
